According to US20240132578A1:

Columns and labels:
Assay in all cases: cell-based or functional assay
[1] = biological target: HIV-1 envelope glycoprotein (Env) of isolate 92RW008, subtype A (HIV-1)
[2] = biological target: HIV-1 envelope glycoprotein (Env) of isolate 92TH021, subtype AE (HIV-1)
[3] = biological target: HIV-1 envelope glycoprotein (Env) of isolate MG RM-A-001, subtype A (HIV-1)
[4] = biological target: HIV-1 envelope glycoprotein (Env) of isolate MG RM-A-004, subtype A (HIV-1)
[5] = biological target: HIV-1 envelope glycoprotein (Env) of isolate MG RM-A-014, subtype A (HIV-1)
[6] = biological target: HIV-1 envelope glycoprotein (Env) of isolate MGRM-Chronic-B-012, on pseudovirus (HIV-1)
[7] = biological target: HIV-1 envelope glycoprotein (Env) of isolate MGRM-Chronic-B-024, on pseudovirus (HIV-1)
[8] = biological target: HIV-1 envelope glycoprotein (Env) of isolate TRJO4551.58, on pseudovirus (HIV-1)
[9] = biological target: aMLV envelope protein on pseudovirus (negative control)
[10] = biological target: HIV-1 JR-CSF Env K421A (HIV-1 (isolate JR-CSF)) (UniProt P20871)
[11] = biological target: HIV-1 JR-CSF Env N411A (HIV-1 (isolate JR-CSF)) (UniProt P20871)
[12] = biological target: HIV-1 JR-CSF Env Q422A (HIV-1 (isolate JR-CSF)) (UniProt P20871)
[13] = biological target: HIV-1 Env of isolate MGRM-G-015 (subtype G) (HIV-1)
[14] = biological target: HIV-1 Env of isolate MGRM-G-016 (subtype G) (HIV-1)
[15] = biological target: HIV-1 Env of isolate MGRM-G-017 (subtype G) (HIV-1)
[16] = biological target: HIV-1 Env of isolate MGRM-G-027 (subtype G) (HIV-1)
[17] = biological target: HIV-1 92RW021 envelope glycoprotein (Env) on pseudovirus (HIV-1 (clade A))
[18] = biological target: HIV-1 92TH021 envelope (Env) on pseudovirus (HIV-1)
[19] = biological target: HIV-1 Env of isolate 92UG001 (clade D pseudovirus) (HIV-1)
[20] = biological target: HIV-1 Env of isolate MGRM-A-009 (clade A pseudovirus) (HIV-1)
[21] = biological target: HIV-1 Env of isolate MGRM-A-014 (clade A pseudovirus) (HIV-1)
[22] = biological target: HIV-1 Env of isolate MGRM-D-019 (clade D pseudovirus) (HIV-1)
[23] = biological target: HIV-1 Env of pseudovirus MGRM-F1-014 (clade F) (HIV-1)
[24] = biological target: HIV-1 Env of pseudovirus MGRM-G-015 (HIV-1)
[25] = biological target: HIV-1 MGRM-AG-011 Env (pseudovirus) (HIV-1)
[26] = biological target: HIV-1 envelope glycoprotein (Env) of isolate MGRM-C-005 (HIV-1)
[27] = biological target: HIV-1 envelope glycoprotein (Env) of isolate MGRM-C-014 (HIV-1)

| Substance | IC50, pseudovirus neutralization [1] | IC50, pseudovirus neutralization [2] | IC50, pseudovirus neutralization [3] | IC50, pseudovirus neutralization [4] | IC50, pseudovirus neutralization [5] | IC50, pseudovirus neutralization [6] | IC50, pseudovirus neutralization [7] | IC50, pseudovirus neutralization [8] | IC50 (ug/mL), pseudovirus neutralization [9] | Fold IC50 increase relative to wild-type (pseudovirus neutralization) [10] | Fold IC50 increase relative to wild-type (pseudovirus neutralization) [11] | Fold IC50 increase relative to wild-type (pseudovirus neutralization) [12] | further results |
| --- | --- | --- | --- | --- | --- | --- | --- | --- | --- | --- | --- | --- | --- |
| 4838_L06 (PGT-121) (antibody) | 0.003 µg/mL | > 50 µg/mL | > 50 µg/mL | > 50 µg/mL | 0.003 µg/mL | 0.036 µg/mL | 0.195 µg/mL | 7.09 µg/mL | > 10 µg/mL |  |  |  |  |
| 5141_B17 (PGT-126) (antibody) | 0.008 µg/mL | 0.197 µg/mL | > 50 µg/mL | > 50 µg/mL | 0.01 µg/mL | 0.027 µg/mL | > 50 µg/mL | 0.025 µg/mL | > 10 µg/mL | 0.7 fold | 0.7 fold | 1.1 fold |  |
| 4877_D15 (PGT-122) (antibody) | 0.003 µg/mL | > 50 µg/mL | > 50 µg/mL | > 50 µg/mL | 0.007 µg/mL | 0.066 µg/mL | 2.31 µg/mL | > 50 µg/mL | > 10 µg/mL |  |  |  |  |
| 5123_A06 (PGT-125) (antibody) | 0.004 µg/mL | 0.006 µg/mL | 12.4 µg/mL | > 50 µg/mL | 13.9 µg/mL | 0.036 µg/mL | > 50 µg/mL | 0.019 µg/mL | > 10 µg/mL | 1.2 fold | 0.5 fold | 1.2 fold |  |
| 4858_P08 (PGT-123) (antibody) | 0.003 µg/mL | > 50 µg/mL | > 50 µg/mL | > 50 µg/mL | 0.003 µg/mL | 0.227 µg/mL | > 50 µg/mL | 16.9 µg/mL | > 10 µg/mL | 0.9 fold | 0.5 fold | 0.8 fold |  |
| PGV04 (antibody) |  |  |  |  |  |  |  |  |  |  |  |  | IC50 (µg/mL), pseudovirus neutralization [13]: 0.333 µg/mL; IC50 (µg/mL), pseudovirus neutralization [14]: 0.019 µg/mL; IC50 (µg/mL), pseudovirus neutralization [15]: 0.065 µg/mL; IC50 (µg/mL), pseudovirus neutralization [16]: 0.125 µg/mL |
| 5145_B14 (PGT-127) (antibody) | 0.012 µg/mL | > 50 µg/mL | > 50 µg/mL | > 50 µg/mL | 0.04 µg/mL | 0.075 µg/mL | > 50 µg/mL | 0.063 µg/mL |  | 1.5 fold | 0.8 fold | 0.1 fold |  |
| 1496_C09 (PG9) (TCN-109) (antibody) |  |  |  |  |  |  |  |  |  |  |  |  | IC50 (µg/ml), pseudovirus neutralization [17]: 0.05 µg/mL; neutralization IC50 [18]: 0.111 µg/mL; IC50, pseudovirus neutralization [19]: 41.8 µg/mL; IC50 (µg/ml), pseudovirus neutralization [20]: 0.03 µg/mL; IC50 (µg/ml), pseudovirus neutralization [21]: 0.62 µg/mL; IC50, pseudovirus neutralization [22]: 0.03 µg/mL; IC50 (µg/mL), pseudovirus neutralization [13]: 6.6 µg/mL; IC50 (µg/mL), pseudovirus neutralization [14]: 1.36 µg/mL; IC50 (µg/mL), pseudovirus neutralization [15]: 0.104 µg/mL; IC50 (µg/mL), pseudovirus neutralization [16]: 0.007 µg/mL; IC50 [23]: 0.01 µg/mL; IC50 (µg/ml), pseudovirus neutralization [24]: 1.51 µg/mL; IC50 (µg/ml), pseudovirus neutralization [25]: 0.01 µg/mL; IC50 (µg/ml), pseudovirus neutralization [26]: 2.98 µg/mL; IC50 (µg/ml), pseudovirus neutralization [27]: 0.64 µg/mL |
